Measured values: publication PMC4900678

Test system: Rrp5_C8;Rok1 (Saccharomyces cerevisiae;Saccharomyces cerevisiae)
Test: glycerol gradient sedimentation
Details: EMSA: 200 mM KCl, 10 mM MgCl2, 40 mM HEPES/KOH pH 7.5, 10 mM Mg-AMPPCP or 1 mM Mg-ADP, 12 min 25 C, native gel 4 C. 40S binding: 200 mM KOAc, 20 mM HEPES/KOH …

mature 40S ribosomal subunit (18S rRNA)
binding signal (400 uM ADP, 98% of Rrp5 free): 2 % Rrp5 bound | binding signal (4 mM AMPPCP): 15 % Rrp5 bound
